This note sets out measurements from the supplement of paper PMC12042874.

± gives the uncertainty stated by the source.

The nature of this data set: amyloid nucleation score (Sup35N fusion, yeast selection) (log enrichment); library NNK1; higher = more nucleation; inactive = no reads after selection. Put shortly:
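Peptides of 20 random codons, each fused to Sup35N, were expressed in psi-negative yeast. Cells were induced with 100 μM copper sulfate for 24 hours and grown 7 days at 30°C on medium lacking adenine and uracil, and plasmid inserts before and after selection were Illumina-sequenced. Nucleation scores are DiMSum log enrichments of output over input reads, centred on the mode score of non-aggregating sequences, and sequences under 100 input reads were excluded.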
Substance LYVDYQCIGSFVTIYKYITP displayed an amyloid nucleation score of 0.889 ± 0.27.
With STWFSFTFLWLMSRGVNQNF the figure was 1.56 ± 0.36; with YHTTFSNVPFKGHARNAQRG, 0.172 ± 0.66.
With YMEGAGRYWRGQRKLPPCIA the figure was -0.414 ± 0.67; with DIFSA, 1.49 ± 0.43.
With FSADVIFPCISSTLQKPPWW the figure was -0.081 ± 0.54; with LPGYVGQ, 0.472 ± 0.78; with TSELNSYSTCFHSDGLSMNR, “inactive”.
For IPENCSGLYWLGNYVPSIAD, the amyloid nucleation score was -0.439 ± 0.34.
With NFLIANRSLDAVLMVQLPFV the figure was -0.344 ± 0.98.
With RCRYYCNR the figure was -0.152 ± 0.48.
With YWAKGNCYVAFRLKWRYNCG the figure was 1.69 ± 0.64; with SIRTVSLLR, -0.859 ± 0.42; with NLDFLLFGIECIVKTCPFGY, 0.01 ± 0.44.
Substance CTVKLLMCQAISLTCSLGFF gave an amyloid nucleation score of 0.534 ± 0.56.
With YIDRRLRLRVG the entry was “inactive”; with LLPWGYD, 2.77 ± 0.15; with VRWNWSGPNELYLRLFCRLP, -0.508 ± 0.39.
With IACSARMFYDS the figure was 0.399 ± 0.47; with AWKKFSWDRLSKP, 5.16 ± 0.072.
For the substance KASCVVLAMLWLVLALGEPG, the amyloid nucleation score was 0.116 ± 0.81.
With YSKWSISTFECMWAKNWRGD the figure was 1.66 ± 0.39; with DFVETEFRLRRD, “inactive”; with TKSMEPSGR, 0.046 ± 0.52.
For the substance CSNLQLAHKRRISNWSNLWC, the amyloid nucleation score is -0.029 ± 0.98.
SNNVFMAVNSSQRIQQFMLA gave an amyloid nucleation score of 1.03 ± 0.14.
In turn, GFRFEMSRQIHKWQSSCLLY showed an amyloid nucleation score of 0.489 ± 0.6.
In turn, RRLTILSTSPWCTPLELNSF yielded an amyloid nucleation score of -0.282 ± 0.37.
With FFWNRWRRTQRANTMLMMRM the figure was 0.402 ± 0.68; with YPSVLRINTTFASDLTG, 0.894 ± 0.3.
With VCTNRYGPCSPS the figure was 4.26 ± 0.09; with SGKCIFSFE, -0.065 ± 0.34.
With KFMVNVIV the figure was 1.24 ± 0.22; with WFRSGDNLRIM, 1.65 ± 0.55.
YFRGNVNAWLLWSEICQVPF returned an amyloid nucleation score of 0.677 ± 0.88.
With IMYWITGTIMCY the figure was 0.037 ± 0.16; with LLMYSKWAFTDYGT, -0.147 ± 0.74; with VKEWGTNSVLGSYTVAQEMS, 0.096 ± 0.94.
The substance VMGNTDVVSDVSWVKCQKLK had an amyloid nucleation score of 0.328 ± 0.32.
With MVSTPSDGNLED the figure was -0.816 ± 0.65; with DNDYDLDPVGIRVHLFNQ, “inactive”; with IIFELKGLPLKNGMRGLKPL, -0.579 ± 0.34.
With DSYCLRMPIGSCIDWWGKGV the figure was -0.058 ± 0.61; with SYSMQRRKCTPAFCFA, -0.36 ± 0.54; with ALGYIPPRRCMTGSPPSVPR, 0.529 ± 0.84.
With RVRAVCVLFRTNAAFPAGTH the figure was -1.03 ± 0.74; with DPVTDVFG, -0.541 ± 0.36.
In the case of VRNNNFAYVNSVTDGVRYAR, the amyloid nucleation score result was “inactive”.
As to QYLFIYFLALS, the amyloid nucleation score is -1.27 ± 0.53.
With VNSVCSGGALMPGFKCAQLK the figure was -0.169 ± 0.81; with IIISMFRGAGRIYSF, 0.336 ± 0.64.
With FATYWVHDMAWRMSGVQMSV the figure was 0.307 ± 0.84; with AVSNLATEGRVYLKVRLESW, -0.991 ± 2.4.
Take ATYSLIFEPWPGPRLVPMQG: the amyloid nucleation score was -0.12 ± 0.62.
Substance MVQNVWDVRYDEAAMTLVRH showed an amyloid nucleation score of 0.461 ± 0.61.
With HLILGLL the figure was -0.54 ± 0.47; with NNTDYLNCYTAICSSNTVAG, “inactive”.
With NKTLV the entry was “inactive”.
With SRYYFHFELFVWR the figure was 0.291 ± 0.7; with CYLSNLAMSHSCMHYALTAA, -0.713 ± 1.4.
With ECKWSLKNHYWVYDGLRGGT, the amyloid nucleation score was -0.378 ± 0.78.
With YVYLYGGSSQFVWYGLFSFA the figure was 2.65 ± 0.14; with ARQGASLGVK, -1.11 ± 1.5; with TWNVMYRIRF, 2.04 ± 0.23.
With SPTLARSVWFRCLCTANGRE the figure was 0.698 ± 0.93.
With LWDVRPWRWVWEWENVNYGK the figure was 0.382 ± 0.54; with WWKRKTSFVSRSYQVRFAQF, -0.058 ± 1.1; with RGPLDP, 0.361 ± 0.45.
SRCHQRTYEVIAEYDLSKTE displayed an amyloid nucleation score of 0.223 ± 0.52.
With VVLRSGINL the figure was -0.561 ± 0.29; with SSMYDSCSLRCLGQVVR, 0.711 ± 0.19.
KYEMRITVGRGYFSGRMHAC yielded an amyloid nucleation score of 0.494 ± 0.78.
In turn, RARTKAWWMDWSGYRRGGHL came in with an amyloid nucleation score of 0.118 ± 0.58.
With IRMDSCRTFYLSLSWHIYCS the figure was 0.338 ± 0.23.
With CIDDFSNFVRNVGAFGEYSF the figure was -0.752 ± 0.53; with FEGRGFKDNATQENNSEFAS, 0.4 ± 0.46.
With PQSHQKTRTFLFMRSTSSMW the figure was -0.847 ± 0.52; with LILKYAVGRRQARVVKRNSR, -0.575 ± 1.4.
EVRLPQTYLVEWGTNQFRF: the amyloid nucleation score was -0.504 ± 0.57.
Substance ITKLIVSFQGFFV registered an amyloid nucleation score of 4.24 ± 0.12.
With THGGCCQGFQPTQLQSLTHQ the figure was 0.367 ± 0.6; with QLDINN, 0.197 ± 0.52.
With RVDGHTVR the figure was 2.4 ± 0.14.
On to NQWCAFWYRESSRVYDCDWL, for which the amyloid nucleation score is -0.478 ± 0.53.
The substance VFVHFVSQWDFEATWT displayed an amyloid nucleation score of 0.27 ± 0.71.
With SVPSVDAIMVGTWCYRCW the figure was -0.28 ± 0.68; with ICIREPTNESLAQLSDGVIR, 2.06 ± 0.6.
With WNQTSPRQCAVTMSANVTGN the figure was 0.575 ± 0.68; with CVAWNIDW, 0.069 ± 0.76.
With SNTSMHRLLLIIVGKNMNVV the figure was 0.261 ± 1; with YNGGCACMEAVMRFGGFFTL, -0.066 ± 0.28; with IEYFCWFAILGKPFESGIGS, 0.991 ± 0.51.
Substance QAELYPDQNRGCVGLVVPAD returned an amyloid nucleation score of -0.544 ± 0.54.
With VFWWT the figure was -0.575 ± 0.29; with SSFRYVCCASRCRETSELLG, 0.142 ± 0.5; with TVFMVKDRVILRFGRGLKAW, -1.09 ± 1.1.
With DKRKVRFAVMFNWRRELRY the figure was 0.708 ± 0.7.
With GMSVNVWMYSSLGVFCLIYV the figure was -0.107 ± 0.2; with HKNEYSGFKRSKLLYRARMR, 0.964 ± 0.68; with DDMCFLN, 0.797 ± 0.34.
In turn, IPRYQSGLWGCCVY returned an amyloid nucleation score of 0.489 ± 0.58.
With RGDAIMAWGSVVRYIHYILY the figure was 1.51 ± 0.5; with CFGSSRVSCEYTDDRDDCGM, “inactive”.
With NWDGLYVYEYSRFVVASCRN the figure was 1.2 ± 0.2.
With NSFRTGVLYSMESEGMAWWC the figure was -0.044 ± 0.76; with HSGGVTIQLCSKACVYSGAG, 0.754 ± 0.19.
For NRYIRELGRKTYVLRKEFRG, the amyloid nucleation score was -0.274 ± 1.2.
With IRHRCSLMICFPAHTRGSAQ the figure was -0.219 ± 0.68; with SELYLFSSRGIYQSTRLRLR, -0.147 ± 0.81.
On to ADFVSFSSFYFWWHVVSLDT, for which the amyloid nucleation score turned out to be 0.238 ± 0.56.
With TAIRWHFGNFVIDNIRNRGI the figure was 1.25 ± 0.19.
With KLDGVVPDVYLSGRLPQAWL the figure was 0.205 ± 0.86; with HSTTLPLLWAYILYPAFG, -0.267 ± 0.37.
With TAWGHV the figure was 0.411 ± 0.73; with MFSQLGVYISCFLSSSVDVE, 0.317 ± 0.48; with SFRFNGGTFVHSSKTKP, 0.441 ± 0.3.
SRRWNNDLGLFSRERKTTLV showed an amyloid nucleation score of -1.06 ± 1.7.
Substance RWSILTIVSMGP showed an amyloid nucleation score of 0.196 ± 1.2.
FNLFVTFSMLRPWSAVPMLA yielded an amyloid nucleation score of 0.338 ± 0.81.
With TFTFNACELCVPGLMCKEWN the figure was 3.94 ± 0.096.
In turn, SLDLL showed an amyloid nucleation score of -0.244 ± 0.46.
With RSSLVLTFELFRFGMYHQEM the figure was 1.28 ± 0.15; with GGYVIF, 0.212 ± 0.56; with NLQVVYMSLV, 2.99 ± 0.14.
With FCNWAL the figure was -0.18 ± 0.5; with AAALRIIGHYMRALLTELLQ, 0.687 ± 0.46; with VDMNWVITGTNWEFRLRVDA, 0.24 ± 0.43.
With RCWGRAYMYRPCCISV the figure was -1.06 ± 0.8; with CVSCVSGILFEMCPSSFPNQ, -0.578 ± 0.9; with PYRPLSGRHRVLTQYGKLVG, 0.112 ± 0.81.
SRSSGFAVTYSNTRTKKSKA: the amyloid nucleation score is -1.77 ± 1.3.
With LNAKFIVKW the figure was 0.588 ± 0.21.
For RSEVYFNWGLNASMEVSPLC, the amyloid nucleation score was -0.02 ± 0.41.
With TCNGCGGHRMFWYK the figure was 0.099 ± 0.55; with QTSSFFCSV, -2.12 ± 2.4; with EMNLSLSVCALFRFIT, -0.56 ± 0.43.
On to AMQKESRGTWGSVTAQVHGM, for which the amyloid nucleation score is 0.304 ± 0.59.
With YLQETLYNKWDWFGNHQGLM the figure was 0.107 ± 0.26.
With SFNWPGFPDCFGPFRAVFIS the figure was -0.61 ± 1.1; with PTLMLAGG, -0.33 ± 0.46.
